In the supplement of paper PMC10724198:
± gives the standard deviation of the averaged measurements.

Each sequence was assayed on Saccharomyces cerevisiae (assay: protein stability index of tFT-peptide fusion (C-terminal peptide) (PSI (0-1 scale)); higher = more stable (slower turnover)). Conditions: genetic background: das1 deletion; temperature: 30 C.
Procedure: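 MPS profiling in S. cerevisiae of the yeast C-terminome library: the last 12 aa of each annotated ORF are fused to the C-terminus of a sfGFP-mCherry timer, after a GGGS linker. Cells are FACS-sorted into 8 mCherry/sfGFP bins and deep-sequenced. PSI runs from 0 (unstable) to 1 (stable); wild type and das1Δ backgrounds, two technical replicates each.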

| Sequence | protein stability index |
| --- | --- |
| KFFNYDGSEGVF [OSI1 C-terminal 12 aa] | 0.7095 ± 0.0039 |
| KGAFQKVAATSR [RPL24A C-terminal 12 aa] | 0.7102 ± 0.0065 |
| KGISIVESTFIS [YDR222W C-terminal 12 aa] | 0.704 ± 0.027 |
| KGKSFILDSSKL [MDH3 C-terminal 12 aa] | 0.77184 ± 0.00047 |
| KGLVIVKDAIIL [PFF1 C-terminal 12 aa] | 0.678 ± 0.027 |
| KGNSMVVHGAQS [SHE3 C-terminal 12 aa] | 0.687 ± 0.026 |
| KIKKIVLKRSFD [NMD2 C-terminal 12 aa] | 0.7019 ± 0.0021 |
| KISKSELEGVPS [MTC6 C-terminal 12 aa] | 0.722 ± 0.019 |
| KITEKWTHKDFK [NOP53 C-terminal 12 aa] | 0.688 ± 0.027 |
| KITVSNLTNQQI [YCL001W-B C-terminal 12 aa] | 0.6746 ± 0.0032 |
| KIVIPDKFIQHI [HRD1 C-terminal 12 aa] | 0.673 ± 0.025 |
| KKAPYFLPAPHT [FMO1 C-terminal 12 aa] | 0.7 ± 0.012 |
| KKEKISKYVSKS [OPI11 C-terminal 12 aa] | 0.725 ± 0.0098 |
| KKEPGANCCIIL [RHO2 C-terminal 12 aa] | 0.743 ± 0.02 |
| KKIVIIYVVRFH [BSC4 C-terminal 12 aa] | 0.304 ± 0.015 |
| KKKAINEKAEQN [SEC62 C-terminal 12 aa] | 0.679 ± 0.018 |
| KKKKSLFLFGKI [YOR019W C-terminal 12 aa] | 0.702 ± 0.039 |
| KKKYKFHQGLSI [SOL2 C-terminal 12 aa] | 0.699 ± 0.028 |
| KKLSNDGETQAN [DMO2 C-terminal 12 aa] | 0.681 ± 0.013 |
| KKRISEKQHFIE [AMF1 C-terminal 12 aa] | 0.689 ± 0.038 |
| KKRNWKRREASS [NRG2 C-terminal 12 aa] | 0.698 ± 0.016 |

| Sequence | protein stability index |
| --- | --- |
| KKRRIHPTPVDL [CAC2 C-terminal 12 aa] | 0.6974 ± 0.0037 |
| KKVLLQAKQYSK [UBC9 C-terminal 12 aa] | 0.678 ± 0.017 |
| KLEKKQSERSTH [STE7 C-terminal 12 aa] | 0.7002 ± 0.0013 |
| KLFESGQDSFDN [MRC1 C-terminal 12 aa] | 0.7192 ± 0.0032 |
| KLGEAEVQGLIM [YDR340W C-terminal 12 aa] | 0.721 ± 0.0023 |
| KLGSYLRDYLRK [GLO3 C-terminal 12 aa] | 0.707 ± 0.0072 |
| KMFAKYRENSRI [DYN3 C-terminal 12 aa] | 0.692 ± 0.017 |
| KMLWQGITDYYI [YOL163W C-terminal 12 aa] | 0.7357 ± 0.0031 |
| KMQGKYIKKKAM [YNR001W-A C-terminal 12 aa] | 0.7139 ± 0.0039 |
| KNDKIHLFMYCT [YBR103C-A C-terminal 12 aa] | 0.54 ± 0.022 |
| KNGYGNSNASWW [DBP1 C-terminal 12 aa] | 0.717 ± 0.031 |
| KNNEVLLHKIKI [FAR8 C-terminal 12 aa] | 0.715 ± 0.015 |
| KNVMRRGQFMKR [GRC3 C-terminal 12 aa] | 0.681 ± 0.013 |
| KPSAKPVDLSKL [DAL7 C-terminal 12 aa] | 0.759 ± 0.011 |
| KPTASSSRKMFR [DUO1 C-terminal 12 aa] | 0.7169 ± 0.0025 |
| KQKAFIQPKLVF [UTP4 C-terminal 12 aa] | 0.691 ± 0.018 |
| KQKALRGEFGAF [RNA15 C-terminal 12 aa] | 0.709 ± 0.011 |
| KQNSSITQKNSS [EPL1 C-terminal 12 aa] | 0.71115 ± 0.00071 |
| KQVNEDADSDLL [KEL1 C-terminal 12 aa] | 0.6784 ± 0.0013 |
| KRMALFVQEKLA [YFL031C-A C-terminal 12 aa] | 0.717 ± 0.0081 |
| KRPPLPNMSFSW [YLL019W-A C-terminal 12 aa] | 0.776 ± 0.025 |

| Sequence | protein stability index |
| --- | --- |
| KRTKTKITSNNG [YBR190W C-terminal 12 aa] | 0.711 ± 0.012 |
| KSEVERVYKENS [FAA3 C-terminal 12 aa] | 0.718 ± 0.0093 |
| KSLAECQELLKN [TPD3 C-terminal 12 aa] | 0.687 ± 0.0072 |
| KTITIGNLPNSI [UGA2 C-terminal 12 aa] | 0.7224 ± 0.0026 |
| KTPNTKRRKTHK [HAS1 C-terminal 12 aa] | 0.745 ± 0.024 |
| KTTPRNVELFGM [DXO1 C-terminal 12 aa] | 0.678 ± 0.021 |
| KVCVCMTINSYN [YDR154C C-terminal 12 aa] | 0.585 ± 0.027 |
| KVTKAAQKAAKK [YPR080W; YBR118W C-terminal 12 aa] | 0.678 ± 0.0078 |
| KWCASYSAGNRR [YLR280C C-terminal 12 aa] | 0.709 ± 0.017 |
| KYESATASALVN [RPS13 C-terminal 12 aa] | 0.697 ± 0.019 |
| KYFHEDVSEDAY [MET5 C-terminal 12 aa] | 0.707 ± 0.028 |
| LADEEDAIHDEL [PDI1 C-terminal 12 aa] | 0.68604 ± 0.00055 |
| LAEVIGVLLKDM [AIM10 C-terminal 12 aa] | 0.69483 ± 0.00037 |
| LDAILLDIICND [MDM1 C-terminal 12 aa] | 0.697 ± 0.0082 |
| LEEVEVNDFIQE [SWM2 C-terminal 12 aa] | 0.7099 ± 0.0036 |
| LEKEKLFNNGNH [PRI2 C-terminal 12 aa] | 0.722 ± 0.053 |
| LEKLCQKQSSTK [CMC1 C-terminal 12 aa] | 0.724 ± 0.022 |
| LELCKLASNNLE [RRI2 C-terminal 12 aa] | 0.6896 ± 0.0022 |
| LELQSRIESYLF [CNN1 C-terminal 12 aa] | 0.703 ± 0.0072 |
| LERIVGLLLMDM [MHF2 C-terminal 12 aa] | 0.6675 ± 0.0051 |
| LFFGGEKVHSLK [NGL3 C-terminal 12 aa] | 0.7279 ± 0.0017 |

| Sequence | protein stability index |
| --- | --- |
| LFYNIRCLGKQF [YAR030C C-terminal 12 aa] | 0.707 ± 0.011 |
| LFYQTIGEFASL [ATF2 C-terminal 12 aa] | 0.706 ± 0.01 |
| LGKGGKGKRKMK [LSO2 C-terminal 12 aa] | 0.705 ± 0.027 |
| LGNNAVGLAKAI [PEP4 C-terminal 12 aa] | 0.7 ± 0.0012 |
| LGQAVVKAINFA [YBR277C C-terminal 12 aa] | 0.6797 ± 0.0059 |
| LHENQLLKWLSK [RRN5 C-terminal 12 aa] | 0.72567 ± 0.00036 |
| LIDSYCLGGESR [YPL034W C-terminal 12 aa] | 0.688 ± 0.018 |
| LIEKNFLSSHAG [YJR071W C-terminal 12 aa] | 0.7159 ± 0.0042 |
| LIFQRKYTAKEF [DTR1 C-terminal 12 aa] | 0.6863 ± 0.004 |
| LIHNFNSRYCHE [LEE1 C-terminal 12 aa] | 0.725 ± 0.0078 |
| LINGTRIMNSIS [VPS33 C-terminal 12 aa] | 0.684 ± 0.01 |
| LISFGMGNTQVI [CLN2 C-terminal 12 aa] | 0.699 ± 0.031 |
| LITSHCCYWNKR [YBL039C-A C-terminal 12 aa] | 0.6928 ± 0.0067 |
| LKKIATKFWGKH [TRK2 C-terminal 12 aa] | 0.697 ± 0.016 |
| LKNYLEAQIAKK [YPR097W C-terminal 12 aa] | 0.692 ± 0.03 |
| LKPWEGRIYLVK [MAL12 C-terminal 12 aa] | 0.6483 ± 0.0018 |
| LKQKALVAAKQS [YJR015W C-terminal 12 aa] | 0.679 ± 0.024 |
| LKSIYTSERITI [RAD61 C-terminal 12 aa] | 0.707 ± 0.04 |
| LKTPQEYESKAK [BOL1 C-terminal 12 aa] | 0.702 ± 0.02 |
